Earlier results as cited in article PMC7096212.

Assays:
insulin (Homo sapiens) = insulin (Homo sapiens) (UniProt P01308)
[1] = biological target: DILP-5 (Drosophila melanogaster) (UniProt Q7KUD5)
IGF-1 (Homo sapiens) = IGF-1 (Homo sapiens) (UniProt P05019)
Sequence of UniProt P05019 (P05019 49-118): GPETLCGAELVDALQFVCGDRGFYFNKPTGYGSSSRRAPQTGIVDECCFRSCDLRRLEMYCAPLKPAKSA

Sequence of UniProt P01308 (P01308 90-110): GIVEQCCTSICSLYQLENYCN
Sequence of UniProt Q7KUD5 (Q7KUD5 23-50, chain 1 of 2): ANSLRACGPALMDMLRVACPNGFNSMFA
Sequence of UniProt Q7KUD5 (Q7KUD5 84-108, chain 2 of 2): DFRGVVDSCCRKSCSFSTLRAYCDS

Kd (insulin (Homo sapiens)): 135 nM | Kd [1]: 2 nM | Kd (IGF-1 (Homo sapiens)): 13.6 nM
Substance: IBP (from UniProt Q09024)
